According to article PMC9943895:

Target: proteasomal core particle (WT) (yeast (endogenous)) (UniProt P21243)
Experiment: stimulation of CP peptidase activity (suc-LLVY-AMC) by titrated base; base titrated against 2 nM CP, preincubated 15 min at 30 °C; 5 μM suc-LLVY-AMC; initial rates fitted to a hyperbola (Michaelis–Menten); surrogate readout for base–CP interaction

| Substance | Kd |
| --- | --- |
| base subcomplex purified from nas6Δ rpt3-Δ3 cells, P38764 1-993; P32565 1-945; O13563 1-156; P33299 1-467; P40327 1-437; P33298 1-428; P53549 1-437; P33297 1-434; Q01939 1-405 | 145 nM |
| base subcomplex purified from nas6Δ cells (WT Rpt3), P38764 1-993; P32565 1-945; O13563 1-156; P33299 1-467; P40327 1-437; P33298 1-428; P53549 1-437; P33297 1-434; Q01939 1-405 | 36 nM |
